Test results taken from PMC8810934.

Biological target: F-actin in live HEK293T cells (human (endogenous in HEK293T)) (UniProt P60709)
Assay: FRET or BRET; live HEK293T cells co-transfected with ABD-mEGFP (donor) and Lifeact-mCherry (acceptor, on actin filaments); harvested 24 h after transfection; FRET efficiency from mEGFP fluorescence lifetime (time-correlated single photon counting); n = 3

In the case of “L253P β-III-spectrin ABD fused at the C-terminus to mEGFP (domain or fragment)”, the FRET efficiency is reported as 8.4%.
